Laboratory results from patent US7405286B2, “Stars—A muscle-specific actin-binding protein” (The Board of Regents of the University of Texas System, priority 2002, dated 2008).
“Also recorded” adds a separate entry of the source.

What was measured:
F-actin = assay: Immunofluorescence / Phalloidin-TRITC staining of transfected COS cells; format: cell-based; details: for stress fibers observed: STARS-transfected COS cells, 2 μM CD or 0.5 μM LB, data not shown; for association with F-actin / actin stress fibers / bundling of actin stress fibers: transfected COS cells, Myc-tagged proteins
Method: (§1) Transient Transfections, Reporter Assays and Immunofluorescence Microscopy. COS cells were maintained in DMEM with 10% FBS. Eighteen hours after plating, the medium was changed to serum-free medium and transfections were performed at 50% confluency using FuGENE reagent-6 (Roche Molecular Biochemicals) following manufacturer's instructions. Each transfection used 0.15 μg of plasmid DNA for the reporter assays, and 0.5-1.0 μg immunohistochemistry. Cytochalasin D 2 μM (Sigma-Aldrich), and Y-27632 75 μM (Tocris) were added directly just after transfection. Latrunculin B 0.5 μM (dissolved in 10% ethanol, Calbiochem) was added 12 hr after transfection and 10% ethanol (final concentration 0.01%) was added to control wells. Cells were harvested 36 hr after transfection and their luciferase and β-galactosidase activity were measured.
For measuring immunofluorescence, cells were rinsed with PBS and fixed in 4% paraformaldehyde for 10 min on ice. After rinsing with PBS, COS cells were incubated in 0.1% Triton X-100 in PBS for 5 min on ice. For rat neonatal cardiomyocytes, 1% Triton X-100 in PBS was used. Cells were blocked for 20 min at room temperature in 0.5% BSA in PBS for COS cells and in 1% BSA plus 3% goat serum in PBS for rat cardiomyocytes. Then, cells were incubated with first antibody diluted in 0.5% BSA in PBS for 30-60 min at room temperature or overnight at 4° C. Anti c-myc monoclonal antibody 9E10 (Santa Cruz) was used at a 1:200 dilution. Other antibodies were anti α-actinin monoclonal antibody (1:400; Sigma-Aldrich), α-tubulin antibody (1:2000; Sigma-Aldrich) and anti-vimentin antibody (1:500; Sigma-Aldrich). Secondary antibodies were anti mouse/rabbit IgG FITC or Texas red (Vector) used at a 1:200 dilution incubated with or without Phalloidin-TRITC (1:500; Sigma Aldrich).

SM22 promoter = assay: SM22-luciferase reporter assay in transiently transfected COS cells; format: cell-based; details: for effect on SRF / SM22 promoter activation by STARS, in words (discussion): COS cells transfected with STARS
From the text: STARS Expression Plasmids. STARS expression constructs were generated using the pcDNA3.1 mammalian expression vector (Invitrogen) which was modified to contain an amino-terminal Myc-tag. Constitutively active RhoA (L63) and C3 transferase in Prk5 were generously provided by Dr. Alan Hall (University College, London, United Kingdom). The SM22-luciferase reporter 1343 bp promoter has been previously described (Li et al., 1995). The smooth muscle α actin-luciferase reporter contained the 4 kb promoter region ligated into the pBL3basic vector (Promega). The ANF reporter contained the 638 bp promoter region (a generous gift from Dr. Mona Nemer, Universite de Montreal, Montreal, Quebec, Canada). The 4× cfos reporter contained four tandem copies of the cfos CArG box with flanking sequences, as described (Chang et al., 2001). CMV-lacZ (Promega) was used as an internal control for transfection efficiency.
as §1

actin = assay: Co-immunoprecipitation of Myc-tagged proteins with actin in COS cells; format: binding; details: anti-Myc immunoprecipitation, anti-actin Western blot
Method: Western Blot and Co-immunoprecipitation Assay. Immunoprecipitation and western blot analysis was performed as described previously (Lu et al., 2000). For immunoprecipitation, cells were incubated with 1 μg anti c-myc polyclonal antibody A14 (Santa Cruz). Western blots were performed with anti-actin monoclonal antibody C4 (1:100; Roche Molecular Biochemicals) or anti c-myc monoclonal antibody 9E10 (1:1000; Santa Cruse) followed by incubation with secondary antibody HRP-conjugated anti mouse-IgG (Santa Cruse, Vector). To detect signals, blots were incubated with ECL (Santa Cruz) for 1 min, and exposed to film (Eastman Kodak Co).

With `C=C1[C@@H](C)[C@H]2[C@H](Cc3ccccc3)NC(=O)[C@]23[C@H](OC(C)=O)/C=C/[C@@](C)(O)C(=O)[C@@H](C)C/C=C/[C@H]3[C@@H]1O` [CD, cytochalasin D, reference compound] as the molecule, how does the stress fibers observed (F-actin) read?
Its stress fibers observed is “only short fragments of disrupted stress fibers”.

What about the “increase of SM22 promoter activity by the agent itself” value (SM22 promoter; COS cells, 2 μM CD, without STARS) of the same molecule?
The value was 8 fold.

What does the source list for `C/C1=C/C(=O)O[C@@H]2C[C@@H](CC[C@H](C)/C=C\CC1)O[C@@](O)([C@@H]1CSC(=O)N1)C2` [LB, latrunculin B, reference compound]?
stress fibers observed (F-actin): only short fragments of disrupted stress fibers; effect on SRF / SM22 promoter activation by STARS, in words (discussion) (SM22 promoter): inhibit the activity of STARS; SM22-luciferase activity under LB treatment (SM22 promoter; COS cells, 0.5 μM LB, even in cells transfected with STARS): abolished

With `C[C@@H](N)[C@H]1CC[C@H](C(=O)Nc2ccncc2)CC1` [Y-27632, reference compound] as the molecule, how does the “effect on SRF / SM22 promoter activation by STARS, in words (discussion)” value (SM22 promoter) read?
The value was “only partially inhibits”.

And the “effect on SRF / SM22 promoter activation by STARS, in words (discussion)” value (SM22 promoter; listed as Y27632)?
Its value is “decreased SM22 promoter activity significantly”.

What about the “reduction of the stimulatory activity of STARS on the SM22 promoter” value (SM22 promoter; COS cells, Y-27632 75 μM) of the same molecule?
Its value is 55%.

For “RhoA L63: constitutively active RhoA mutant, expression vector [reference compound]”, which “activation of the SM22 promoter” value (SM22 promoter; COS cells, STARS and RhoA L63 together) is on record?
Its value is “higher levels”.

What about the “activation of the SM22 promoter” value (SM22 promoter; COS cells, STARS or RhoA (L63) expression vector alone) of the same molecule?
The value was “comparable levels”.

B1: C96: STARS deletion mutant within the conserved region (protein)
chain: HKGDEGYGRPKEGTKTAERAKRAEEHIYREMMDMCFIICTMARHRRDGKIQVTFGDLFDRYVRISDKVVGILMRARKHGLVDFEGEMLWQGRDDHV
modifications: left off: small tags and cut ends
notes: STARS deletion mutant within the conserved region
B1 was tested. Which “association with F-actin / actin stress fibers” value (F-actin) did it give?
Its value is “did not affect the association with F-actin; also recorded: just associates with actin stress fibers”.

And the “bundling of actin stress fibers” value (F-actin)?
The value was “abolished the ability of STARS to bundle actin stress fibers”.

B2: N233: STARS deletion mutant lacking residues from the carboxy-terminus into the conserved region (protein)
chain: MAPGEKESGEGPAKSALRKIRTATLVISLARGWQQWANENSIRQAQEPTGWLPGGTQDSPQAPKPITPPTSHQKAQSAPKSPPRLPEGHGDGQSSEKAPEVSHIKKKEVSKTVVSKTYERGGDVSHLSHRYERDAGVLEPGQPENDIDRILHSHGSPTRRRKCANLVSELTKGWRVMEQEEPTWRSDSVDTEDSGYGGEAEERPEQDGVQVAVVRIKRPLPSQVNRFTEKLNC
modifications: left off: small tags and cut ends
notes: STARS deletion mutant lacking residues from the carboxy-terminus into the conserved region
For B2, which co-immunoprecipitation with actin (actin) is on record?
Its co-immunoprecipitation with actin is “did not bind actin”.

And the “association with F-actin / actin stress fibers” value (F-actin)?
The value was “did not affect the association with F-actin”.

And the “bundling of actin stress fibers” value (F-actin)?
Its value is “abolished the ability of STARS to bundle actin stress fibers”.

B3: N323: STARS deletion mutant lacking residues from the carboxy-terminus into the conserved region (protein)
chain: MAPGEKESGEGPAKSALRKIRTATLVISLARGWQQWANENSIRQAQEPTGWLPGGTQDSPQAPKPITPPTSHQKAQSAPKSPPRLPEGHGDGQSSEKAPEVSHIKKKEVSKTVVSKTYERGGDVSHLSHRYERDAGVLEPGQPENDIDRILHSHGSPTRRRKCANLVSELTKGWRVMEQEEPTWRSDSVDTEDSGYGGEAEERPEQDGVQVAVVRIKRPLPSQVNRFTEKLNCKAQQKYSPVGNLKGRWQQWADEHIQSQKLNPFSEEFDYELAMSTRLHKGDEGYGRPKEGTKTAERAKRAEEHIYREMMDMCFIICTMARH
modifications: left off: small tags and cut ends
notes: as for B2
How did the co-immunoprecipitation with actin (actin) turn out when B3 was run?
Its co-immunoprecipitation with actin is “did not bind actin”.

And the “association with F-actin / actin stress fibers” value (F-actin)?
The value was “did not affect the association with F-actin”.

What about the “bundling of actin stress fibers” value (F-actin) of the same molecule?
The value was “abolished the ability of STARS to bundle actin stress fibers”.

B4: N279: STARS deletion mutant lacking residues from the carboxy-terminus into the conserved region (protein)
chain: MAPGEKESGEGPAKSALRKIRTATLVISLARGWQQWANENSIRQAQEPTGWLPGGTQDSPQAPKPITPPTSHQKAQSAPKSPPRLPEGHGDGQSSEKAPEVSHIKKKEVSKTVVSKTYERGGDVSHLSHRYERDAGVLEPGQPENDIDRILHSHGSPTRRRKCANLVSELTKGWRVMEQEEPTWRSDSVDTEDSGYGGEAEERPEQDGVQVAVVRIKRPLPSQVNRFTEKLNCKAQQKYSPVGNLKGRWQQWADEHIQSQKLNPFSEEFDYELAMSTRL
modifications: left off: small tags and cut ends
notes: as for B2
What does the source list for B4?
co-immunoprecipitation with actin (actin): did not bind actin; association with F-actin / actin stress fibers (F-actin): did not affect the association with F-actin; bundling of actin stress fibers (F-actin): abolished the ability of STARS to bundle actin stress fibers

B5: N346: STARS deletion mutant lacking residues from the carboxy-terminus into the conserved region (protein)
chain: MAPGEKESGEGPAKSALRKIRTATLVISLARGWQQWANENSIRQAQEPTGWLPGGTQDSPQAPKPITPPTSHQKAQSAPKSPPRLPEGHGDGQSSEKAPEVSHIKKKEVSKTVVSKTYERGGDVSHLSHRYERDAGVLEPGQPENDIDRILHSHGSPTRRRKCANLVSELTKGWRVMEQEEPTWRSDSVDTEDSGYGGEAEERPEQDGVQVAVVRIKRPLPSQVNRFTEKLNCKAQQKYSPVGNLKGRWQQWADEHIQSQKLNPFSEEFDYELAMSTRLHKGDEGYGRPKEGTKTAERAKRAEEHIYREMMDMCFIICTMARHRRDGKIQVTFGDLFDRYVRISDK
modifications: left off: small tags and cut ends
notes: as for B2
For B5, which co-immunoprecipitation with actin (actin) is on record?
The co-immunoprecipitation with actin was “did not bind actin”.

What about the “association with F-actin / actin stress fibers” value (F-actin) of the same molecule?
Its value is “did not affect the association with F-actin”.

What about the “bundling of actin stress fibers” value (F-actin) of the same molecule?
Its value is “abolished the ability of STARS to bundle actin stress fibers”.

B6: Del234-279: larger internal STARS deletion mutant within the conserved region (protein)
chain: MAPGEKESGEGPAKSALRKIRTATLVISLARGWQQWANENSIRQAQEPTGWLPGGTQDSPQAPKPITPPTSHQKAQSAPKSPPRLPEGHGDGQSSEKAPEVSHIKKKEVSKTVVSKTYERGGDVSHLSHRYERDAGVLEPGQPENDIDRILHSHGSPTRRRKCANLVSELTKGWRVMEQEEPTWRSDSVDTEDSGYGGEAEERPEQDGVQVAVVRIKRPLPSQVNRFTEKLNCHKGDEGYGRPKEGTKTAERAKRAEEHIYREMMDMCFIICTMARHRRDGKIQVTFGDLFDRYVRISDKVVGILMRARKHGLVDFEGEMLWQGRDDHV
modifications: left off: small tags and cut ends
notes: larger internal STARS deletion mutant within the conserved region
What does the source list for B6?
co-immunoprecipitation with actin (actin): failed to co-immunoprecipitate; association with F-actin / actin stress fibers (F-actin): able to associate with F-actin; bundling of actin stress fibers (F-actin): lost the ability to bundle actin fibers

B7: N304: STARS deletion mutant lacking residues from the carboxy-terminus into the conserved region (protein)
chain: MAPGEKESGEGPAKSALRKIRTATLVISLARGWQQWANENSIRQAQEPTGWLPGGTQDSPQAPKPITPPTSHQKAQSAPKSPPRLPEGHGDGQSSEKAPEVSHIKKKEVSKTVVSKTYERGGDVSHLSHRYERDAGVLEPGQPENDIDRILHSHGSPTRRRKCANLVSELTKGWRVMEQEEPTWRSDSVDTEDSGYGGEAEERPEQDGVQVAVVRIKRPLPSQVNRFTEKLNCKAQQKYSPVGNLKGRWQQWADEHIQSQKLNPFSEEFDYELAMSTRLHKGDEGYGRPKEGTKTAERAKRAEE
modifications: left off: small tags and cut ends
notes: as for B2
How did the co-immunoprecipitation with actin (actin) turn out when B7 was run?
The co-immunoprecipitation with actin was “did not bind actin”.

What about the “association with F-actin / actin stress fibers” value (F-actin) of the same molecule?
Its value is “did not affect the association with F-actin”.

And the “bundling of actin stress fibers” value (F-actin)?
Its value is “abolished the ability of STARS to bundle actin stress fibers”.
